This series deals with spDnmt2 (Schizosaccharomyces pombe). The series can be described thus: fluorescence polarization. Particulars: binding buffer, salt, pH and temperature not given in the material (methods section text missing). A general note: In fluorescence polarisation assays a small probe gives low polarisation when free and higher when bound to something large.

On to G34 tRNAAsp (unmodified), for which the Kd (in general, a measure of binding affinity in units of concentration) was 960 nM.

For Q34 tRNAAsp, where the note is “queuosine at position 34 (queuine enzymatically incorporated by human TGT)”, the Kd was 670 nM.
